Experimental data taken from the supplement of paper PMC9732359.
± gives the uncertainty stated by the source.

Assay: protein stability index of a GFP-peptide fusion (yeast GPS) (PSI 1-4); higher = more stable; sorted into four equal gates, so the index is relative within each strain
Outline: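 Tiled 17-residue peptides from yeast proteins were fused downstream of GFP on a plasmid that also expresses Cherry, and the pooled library was carried in yeast. Mid-log cultures grown in leucine-free medium were sorted into four equal gates by GFP/Cherry fluorescence ratio. Plasmids from each gate were PCR-amplified and Illumina-sequenced, and reads were assigned to strains by barcodes. Each peptide's protein stability index is the sum, over gates, of the gate's read frequency multiplied by its gate number.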

Sequence | protein stability index (doa10∆) | protein stability index (pdr5∆) | protein stability index (san1∆) | protein stability index (ubr1∆)
EEEDAKNPLFSYVEPVL [RPL31A] | 2.88 ± 0.042 | 2.63 ± 0.036 | 2.12 ± 0.047 | 2.21 ± 0.026
QTFEAKLHFKDTKPFLN [NUT1] | 2.4 ± 0.074 | 2.87 ± 0.12 | 2.62 ± 0.059 | 2.67 ± 0.043
RYDSNSGGEREIQRTML [RPT2] | 3.43 ± 0.12 | 3.62 ± 0.096 | 3.39 ± 0.12 | 3.38 ± 0.1
KNKYGEINSEDYDNKTK [SRP68] | 3.23 ± 0.094 | 2.89 ± 0.16 | 3.43 ± 0.06 | 3.14 ± 0.084
RWKRFTIGAIFLNHAFD [CDC53] | 2.54 ± 0.065 | 2 ± 0.069 | 2.18 ± 0.099 | 1.53 ± 0.048
LDPNLITLALSSNPNSS [SRB4] | 2.31 ± 0.067 | 2.86 ± 0.095 | 2.4 ± 0.084 | 2.56 ± 0.11
IFKDKEKLVSDLRLIKV [SMC1] | 3.25 ± 0.26 | 3.23 ± 0.089 | 3.31 ± 0.21 | 3.44 ± 0.15
SKRVYKILSPTMYMEVY [CDC53] | 2.29 ± 0.075 | 2.68 ± 0.098 | 2.15 ± 0.076 | 2.63 ± 0.092
AATNETFENINSLFYLK [IRR1] | 2.43 ± 0.25 | 2.37 ± 0.21 | 2.71 ± 0.17 | –
PGIISITSLQDSSSQCI [YMR129W/POM152] | 2.86 ± 0.076 | 3.04 ± 0.074 | 3 ± 0.066 | 3.14 ± 0.085
HCEDKDYKTAFSYFFES [RPN6] | 2.77 ± 0.081 | 2.83 ± 0.071 | 2.53 ± 0.076 | 3.02 ± 0.055
RVRHEDVETVKREIQEA [RPC53] | – | 3 ± 0.17 | – | –
EAAAKEKDELDNIEVSK [QCR7] | 3.18 ± 0.098 | 3.41 ± 0.079 | 3.29 ± 0.084 | 3.22 ± 0.055
SMHLLKDWTDTFVYILE [SRB8] | 3.06 ± 0.057 | 2.95 ± 0.06 | 2.88 ± 0.047 | 2.97 ± 0.059
IFNFDQLVEITEQIKMR [SRB8] | 1.59 ± 0.1 | 1.6 ± 0.082 | 1.66 ± 0.14 | 1.48 ± 0.057
SDEAIIPVNKRRGAHGS [SIR3] | 3.03 ± 0.15 | 3.13 ± 0.13 | 3.04 ± 0.13 | 2.93 ± 0.18
GYLDDSEILIISSLMFD [IRR1] | 2.79 ± 0.071 | 2.91 ± 0.06 | 2.89 ± 0.07 | 2.75 ± 0.046
DARSSRNFSLAIIDKNT [PRE4] | 3.02 ± 0.075 | 2.78 ± 0.083 | 2.98 ± 0.05 | 2.89 ± 0.056
QLLLLSDERAKLELINR [LRP1] | 2.93 ± 0.092 | 3.06 ± 0.18 | 2.99 ± 0.11 | 2.99 ± 0.18
TTSYIKEQENITIQDLL [DPB4] | 3.09 ± 0.19 | 2.83 ± 0.17 | 2.86 ± 0.082 | 3.02 ± 0.27
LARGHRVEKIPEIPLVV [RPL4A] | – | 3.42 ± 0.25 | – | –
CRKLSFSDKVNALWILV [ITC1] | 1.72 ± 0.075 | 1.8 ± 0.044 | 1.5 ± 0.1 | 1.85 ± 0.051
SIGINDVTPADDLKQKK [RPO31] | 2.99 ± 0.25 | – | – | –
TFDSSWNWAKQSLLSLY [FAS2] | 1.47 ± 0.066 | 1.3 ± 0.058 | 2.08 ± 0.15 | 1.58 ± 0.073
KFLILNENPINKIMTNQ [NUT1] | 2.9 ± 0.11 | 2.75 ± 0.1 | 2.67 ± 0.07 | 2.99 ± 0.089
ALMKEKDIRSTLASLIR [RPC82] | 3.2 ± 0.27 | 2.85 ± 0.21 | 2.43 ± 0.24 | 3.13 ± 0.12
GAEDPKVLINDQLSTIS [SWI1] | 3.27 ± 0.18 | 3.24 ± 0.25 | 3.32 ± 0.21 | –

Sequence | protein stability index (doa10∆) | protein stability index (pdr5∆) | protein stability index (san1∆) | protein stability index (ubr1∆)
KSESPSEVLVDTLDSKS [ISW2] | 2.98 ± 0.067 | 3.11 ± 0.068 | 2.96 ± 0.075 | 3.24 ± 0.056
SGEEKGKKVSGFKDEVL [RPS1B] | 3.4 ± 0.11 | 3.61 ± 0.14 | 3.48 ± 0.11 | 3.46 ± 0.083
GDIKVLDSNFNLQREID [RPN14] | 2.96 ± 0.12 | 3.11 ± 0.091 | 2.93 ± 0.085 | 3.26 ± 0.082
SETQTKDENNTANDQYS [YCG1] | 2.89 ± 0.069 | 3.15 ± 0.056 | 2.84 ± 0.041 | 3 ± 0.044
SPFSITFSVYHESTSRT [YMR129W/POM152] | 2.36 ± 0.11 | 2.55 ± 0.062 | 2.76 ± 0.056 | 2.33 ± 0.06
KTFCEDPFSDVDDDQDY [GRR1] | 3.46 ± 0.17 | 3.31 ± 0.099 | 3.32 ± 0.048 | 3.46 ± 0.1
LKSAENSGKQQYYRGLP [SWP82] | 2.25 ± 0.1 | 2.24 ± 0.067 | 2.25 ± 0.21 | 2.75 ± 0.068
ATVLSRKILKKTFKNPK [RPN5] | 2.4 ± 0.044 | 2.67 ± 0.047 | 2.55 ± 0.057 | 2.87 ± 0.037
QFIYAGKKASLNVGNVL [RPL2A] | 2.59 ± 0.092 | 2.81 ± 0.11 | 2.86 ± 0.11 | 2.8 ± 0.092
FAALSDSYGQGSMTKTW [SSN2] | 3.17 ± 0.094 | 3.34 ± 0.088 | 3.23 ± 0.1 | 3.2 ± 0.063
PGWDFETEEIDPELLRS [RPL5] | 3.34 ± 0.13 | 3.19 ± 0.081 | 3.11 ± 0.057 | 2.77 ± 0.17
GGLNDPRLGSIDRNLKC [RPO21] | 3.35 ± 0.17 | 3.28 ± 0.11 | 3.32 ± 0.094 | 3.33 ± 0.086
KTTYYYYNEEGIHILLY [RPC82] | 1.9 ± 0.12 | – | – | 2.75 ± 0.05
VAHITTKSPAYPMMHQV [RGR1] | 1.79 ± 0.046 | 1.91 ± 0.054 | 1.85 ± 0.067 | 1.68 ± 0.068
DQCVGQVGLNFELSFTG [YMR129W/POM152] | 2.94 ± 0.061 | 3.01 ± 0.077 | 3.06 ± 0.046 | 2.97 ± 0.043
TNNDSNNKNNSITTGND [MED2] | 2.69 ± 0.1 | 2.64 ± 0.057 | 2.7 ± 0.081 | 1.87 ± 0.043
DATTWRYSMSEQFPFYL [IRR1] | 3.09 ± 0.098 | 2.94 ± 0.066 | 3.06 ± 0.063 | 3.07 ± 0.049
PTDQNNQSNLNGGNNTQ [SNF2] | 2.46 ± 0.083 | 3.03 ± 0.072 | 3.13 ± 0.079 | 3.01 ± 0.063
SNNDEDDKDCTIKISTN [RGR1] | 2.94 ± 0.063 | 3.13 ± 0.062 | 2.89 ± 0.054 | 3 ± 0.054
GSLALLKLSMADYNGAL [POP4] | 2.33 ± 0.046 | 2.67 ± 0.058 | 2.48 ± 0.054 | 2.38 ± 0.037
VIGLDSEHDKKRLSAAL [YML103C/NUP188] | 3.5 ± 0.23 | 3.69 ± 0.19 | 3.14 ± 0.13 | 3.67 ± 0.14
GHLNGHTPTIASYLTPL [SSN2] | 2.24 ± 0.039 | 2.74 ± 0.043 | 2.62 ± 0.044 | 2.54 ± 0.035
SADPSLLIDQFSPVISQ [SWI1] | 2.85 ± 0.12 | 3.08 ± 0.1 | 2.51 ± 0.18 | 2.96 ± 0.067
QCNYSSLVFNRKLAVER [PRE5] | 2.23 ± 0.2 | 1.5 ± 0.18 | 1.46 ± 0.19 | 1.67 ± 0.2
DKDRDTRRKRRQGRSNR [SNF5] | 3.6 ± 0.23 | 3.48 ± 0.16 | 3.31 ± 0.096 | 3.55 ± 0.14
RNNSNNKTSNNNNVTAV [SWI1] | 2.73 ± 0.05 | 2.6 ± 0.054 | 1.74 ± 0.096 | 2.81 ± 0.044
